Laboratory results: patent US20230265217A1

B1: 7-26 (VHH)
VHH: EVQLVESGGGLVQPGGSLRLSCAASGSTFSINAMGWFRQAPGKEREFVAGITSSGGYTNYADSVKGRFTISADNSKNTAYLQMNSLKPEDTAVYYCAADGVPEYSDYASGPVWGQGTLVTVSS
B2: 3-31 (VHH)
VHH: B1 VHH

What was measured:
Settings in all cases: remark: other sources report otherwise
[1] = target: T1, SARS-CoV-2 S protein trimer (Alpha B.1.1.7 UK variant) [SPN-C52H6] (SARS-CoV-2), P0DTC2; test: binding kinetics, Carterra SPR
[2] = target: SARS-CoV-2 S protein trimer [SPN-C52H9] (SARS-CoV-2), P0DTC2; test: binding kinetics, Carterra SPR
[3] = target: T2, SARS-CoV-2 S protein trimer (Delta B.1.617.2 India variant) [SPN-C52He] (SARS-CoV-2), P0DTC2; test: binding kinetics, Carterra SPR
[4] = target: T3, SARS-CoV-2 S protein trimer (Beta B.1.351 SA variant) [SPN-C52Hk] (SARS-CoV-2), P0DTC2; test: binding kinetics, Carterra SPR
[5] = target: T4, SARS-CoV-2 S protein trimer (Kappa B.1.617.1 India variant) [SPN-C52Hr] (SARS-CoV-2), P0DTC2; test: binding kinetics, Carterra SPR
[6] = target: S1 RBD L452R E484Q (Acro) (SARS-CoV-2), P0DTC2; test: Carterra SPR
[7] = target: SARS-CoV-2 S protein trimer (P.1 Gamma Brazil variant) [SPN-C52Hg] (SARS-CoV-2), P0DTC2; test: Carterra SPR
[8] = target: T1, SARS-CoV-2 S protein trimer (Alpha …); test: Carterra SPR
[9] = target: T2, SARS-CoV-2 S protein trimer (Delta …); test: Carterra SPR
[10] = target: SARS-CoV-2 S protein trimer [SPN-C52H7] (SARS-CoV-2), P0DTC2; test: Carterra SPR
[11] = target: T3, SARS-CoV-2 S protein trimer (Beta …); test: Carterra SPR
[12] = target: T4, SARS-CoV-2 S protein trimer (Kappa …); test: Carterra SPR

Row | Binder | Kd [1] [pM] | koff [1] [s⁻¹] | kon [1] [M⁻¹ s⁻¹] | Kd [2] [pM] | koff [2] [s⁻¹] | kon [2] [M⁻¹ s⁻¹] | Kd [3] [pM] | koff [3] [s⁻¹] | kon [3] [M⁻¹ s⁻¹] | Kd [4] [pM] | koff [4] [s⁻¹] | kon [4] [M⁻¹ s⁻¹] | Kd [5] [pM] | koff [5] [s⁻¹] | kon [5] [M⁻¹ s⁻¹] | Kd [6] [pM] | further results
1 | B1 | < 9.65 | < 1e-05 | 1.04e+06 | < 11 | < 1e-05 | 911000 | < 10.4 | < 1e-05 | 958000 | < 8.08 | < 1e-05 | 1.24e+06 | < 8.52 | < 1e-05 | 1.17e+06 | 18000 | 
2 | B2 | < 10.8 | < 1e-05 | 925000 | < 13.6 | < 1e-05 | 734000 | < 10.7 | < 1e-05 | 938000 | < 9.8 | < 1e-05 | 1.02e+06 | < 10 | < 1e-05 | 1e+06 | 16200 | Kd [7]: < 12 pM; koff [7]: < 1e-05 s⁻¹; kon [7]: 834000 M⁻¹ s⁻¹; Kd [8]: 14.3 pM; koff [8]: 1e-05 s⁻¹; kon [8]: 699000 M⁻¹ s⁻¹; Kd [9]: 13.4 pM; koff [9]: 1e-05 s⁻¹; kon [9]: 744000 M⁻¹ s⁻¹; Kd [10]: < 16.7 pM; koff [10]: < 1e-05 s⁻¹; kon [10]: 600000 M⁻¹ s⁻¹; Kd [11]: 11.7 pM; koff [11]: 1e-05 s⁻¹; kon [11]: 851000 M⁻¹ s⁻¹; Kd [12]: 12.9 pM; koff [12]: 1e-05 s⁻¹; kon [12]: 777000 M⁻¹ s⁻¹
